Biological target: T1, CSEP0064/BEC1054 (Blumeria graminis) (UniProt N1JJ94)
T1 sequence: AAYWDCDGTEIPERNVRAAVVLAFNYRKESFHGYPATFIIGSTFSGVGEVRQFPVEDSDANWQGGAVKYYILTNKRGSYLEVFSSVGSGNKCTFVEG
Test: NMR

Substance SRL DNA oligonucleotide has a Kd of over 10 µM.
